Reference: the supplement of paper PMC10567573

B1: DYRK1B (parent)
chain: RFQDLVLRMLEYEPAARISPLGAL

Variants of: B1
Experiment: protein stability index of a GFP-peptide fusion (GPS, HEK-293T) (PSI 1-6); higher = more stable
Conditions: c terminus: a fixed tail appended
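Note: lentivirally expressed fusions sorted by FACS into six bins by GFP to DsRed ratio, PSI derived from sequencing read proportions per bin multiplied by bin number.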

Protein stability index of substitutions, site by site:
R17: N 1.46; G 2.29; D 1.91; M 4.29; F 1.77; C 2.25; Y 3.04; S 2.69; I 4.01; P 2.75; T 1
I18: H 1.23; D 1.65; P 1.98; F 2.3; Q 2.04; A 1.41; S 2.1; L 2.33; N 1.23; G 1.27; M 2.17; R 1.15; E 2.06
Y12: N 1.65; S 2.61; T 1.04; Q 1.44; W 2.82; G 1.6; D 1.99; V 3.06; P 2; E 1.05; M 2.22
A15: P 2.8; F 1.95; K 3.43; M 2.57; R 3.6; W 5.07; H 5.14; Q 2.04; Y 2.03
P14: L 5.01; F 2.87; N 1.45; E 2.21; I 1.72
Q3: Y 3.44
A16: F 1.02; N 3.65; C 3.04; E 1.36; T 2.28; M 1.85; K 2.35; P 1.44
L5: D 2.71; T 1.49; K 1.91; C 3.97; G 1.4; H 1.36; Y 2.06; A 2.01; P 2.16; V 2.42; E 1.02; R 1.2; Q 1.1; N 2.28; F 2.62; M 3.17; W 2
E13: W 3.37; H 1.76; R 1.34; T 4.09; N 2.11; A 2.87; L 2.27; F 2.32; G 1.82; Y 3.29; S 2.48; D 3.04; P 3.05; Q 3.79
L7: S 2.05; E 1.8; G 1.18; K 1.51; R 1.58; Y 1.38; N 1.41; P 2.25; Q 1.69; T 2.3; F 2.9; H 1.03; M 2.13
V6: Y 2.18; L 1.77; Q 2.12; W 1.03; G 1.88; P 2.58; D 2.24; H 2.01; T 2.07; A 2.26; S 1.91; R 2; K 1.51; I 2.23; N 2.78
R8: A 4.01; P 2.23; I 2.21; M 3.14; G 1.33; E 2.06; C 2.22; L 1.89; H 1.85; D 1.31
L10: E 1.27; Q 1.6; H 1.17; I 1.96; D 1.92; T 2.19; G 1.66; A 3.32; P 2.37; M 2.05; N 1.64
D4: I 1.1; R 2.31; V 3.69; N 1.91; K 2.07; H 2.78; S 2.88
E11: N 2.21; V 3.51; Y 3.21; P 3.04; L 2.25; H 2.96; Q 2.81; T 3.67; M 3.73; A 1.56; R 2.66
M9: F 2.77; G 1.33; S 1.09; D 3.29; E 1.98; T 1.83; R 1.86; H 2.78; K 1.53; N 2.33; L 2.7
